The values that follow come from US20150315289A1 (published 2015).

For test [1], the target named is T1, linear phage-display peptide WTWNITKAYPLP
T1 peptide: WTWNITKAYPLP
Briefly: phage-displayed peptide screen with hPAM4 and mPAM4.
Excerpt: (§1) The first was a linear peptide library consisting of 12 amino acid sequences and the second was a cyclic peptide consisting of 7 amino acid sequences cyclized by a disulfide bridge.

Test [2] has as its target T2, cyclic phage-display peptide ACPEWWGTTC (disulfide 2-10).
T2 peptide: ACPEWWGTTC
Briefly: phage-displayed peptide immunoreactivity, against the linear peptide.

The target in test [3] is T3, linear phage-display peptide WTWNITKEYPQP
T3 peptide: WTWNITKEYPQP
Briefly: degenerate phage library panned and screened as before (hPAM4 and mPAM4).
Excerpt: as §1

For another test, the target named is MUC17 (UniProt Q685J3 26-4493). Briefly: immunofluorescence co-localisation on human carcinoma cell lines (data not shown).

Positions of bridges follow the written chain, without caps; N, C: chain ends. No end group written: not given here.

B1: murine PAM4 (mPAM4) (antibody, V domains shown)
VH: EVQLQESGPELVKPGASVKMSCKASGYTFPSYVLHWVKQKPGQGLEWIGYINPYNDGTQYNEKFKGKATLTSDKSSSTAYMELSRLTSEDSAVYYCARGFGGSYGFAYWGQGTLITVSA
VL: DIVMTQSPAIMSASPGEKVTMTCSASSSVSSSYLYWYQQKPGSSPKLWIYSTSNLASGVPARFSGSGSGTSYSLTISSMEAEDAASYFCHQWNRYPYTFGGGTKLEIK
notes: also called MAb PAM4; mAb-PAM4
For B1, the binding result in test [1] and in test [3] was “binds” each time. Further, the “immunoreactivity relative to the linear sequence” value in test [2] was approximately 10%.

B2: humanized PAM4 (hPAM4) IgG (antibody, V domains shown)
VH: QVQLQQSGAEVKKPGASVKVSCEASGYTFPSYVLHWVKQAPGQGLEWIGYINPYNDGTQYNEKFKGKATLTRDTSINTAYMELSRLRSDDTAVYYCARGFGGSYGFAYWGQGTLVTVSS
VL: DIQLTQSPSSLSASVGDRVTMTCSASSSVSSSYLYWYQQKPGKAPKLWIYSTSNLASGVPARFSGSGSGTDFTLTISSLQPEDSASYFCHQWNRYPYTFGGGTRLEIKR
notes: humanized IgG1 kappa; used HRP-conjugated in some ELISAs and blots; also called clivatuzumab; HRP-hPAM4
For B2, the values for the binding result (in test [1]; in test [3]; with MUC17) were “binds”, “binds” and “no binding”, respectively.
